From patent US20020045591A1 (published 2002) come the findings set out here.

In experiment [1] the target is T1, Endogenous β-catenin of SW480 human colon carcinoma cells (human, UniProt P35222 2-781).
T1 construct: whole, on cells
T1 sequence (looked up): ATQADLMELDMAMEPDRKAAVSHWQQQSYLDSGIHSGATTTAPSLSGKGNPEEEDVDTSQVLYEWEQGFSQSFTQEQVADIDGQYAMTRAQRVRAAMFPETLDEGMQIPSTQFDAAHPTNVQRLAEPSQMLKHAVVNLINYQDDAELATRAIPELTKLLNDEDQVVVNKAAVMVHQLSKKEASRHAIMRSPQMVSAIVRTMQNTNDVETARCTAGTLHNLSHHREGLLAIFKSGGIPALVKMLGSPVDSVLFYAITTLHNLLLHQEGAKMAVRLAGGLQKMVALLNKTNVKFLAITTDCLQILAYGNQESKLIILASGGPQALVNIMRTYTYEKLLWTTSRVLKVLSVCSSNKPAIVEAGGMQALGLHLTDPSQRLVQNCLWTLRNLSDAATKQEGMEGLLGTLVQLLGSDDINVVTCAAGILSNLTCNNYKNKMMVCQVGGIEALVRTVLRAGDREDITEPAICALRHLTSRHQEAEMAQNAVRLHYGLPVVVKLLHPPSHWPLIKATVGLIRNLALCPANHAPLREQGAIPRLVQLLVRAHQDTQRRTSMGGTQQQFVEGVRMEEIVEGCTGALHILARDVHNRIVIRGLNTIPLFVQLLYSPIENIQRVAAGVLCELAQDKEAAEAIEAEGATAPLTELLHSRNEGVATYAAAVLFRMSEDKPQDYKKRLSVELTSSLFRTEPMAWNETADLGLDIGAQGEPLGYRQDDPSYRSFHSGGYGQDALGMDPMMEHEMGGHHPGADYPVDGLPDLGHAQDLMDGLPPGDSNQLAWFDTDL
Briefly: double immunofluorescence, transfected SW480 cells.

Experiment [2] has as its target HA-tagged LEF-1. In words: cell-based or functional assay.

HA-tagged LEF-1, sequence (P27782 whole entry): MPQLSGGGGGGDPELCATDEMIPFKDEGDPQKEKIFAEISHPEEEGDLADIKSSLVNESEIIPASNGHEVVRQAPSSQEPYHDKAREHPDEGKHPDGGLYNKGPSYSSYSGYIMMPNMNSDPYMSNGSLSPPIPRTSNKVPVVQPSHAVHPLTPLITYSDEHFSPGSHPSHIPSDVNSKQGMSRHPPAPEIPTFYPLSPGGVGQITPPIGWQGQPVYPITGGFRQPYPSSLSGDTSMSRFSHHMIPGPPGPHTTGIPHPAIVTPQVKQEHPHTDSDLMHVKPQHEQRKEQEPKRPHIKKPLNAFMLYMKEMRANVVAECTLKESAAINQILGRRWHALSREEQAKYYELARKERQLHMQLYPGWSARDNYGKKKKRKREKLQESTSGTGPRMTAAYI

B1: HA-tagged chicken α-catenin (other)
chain: TAVTAGNVNFRWDPKSLEIRTLAVERLLEPLVTQVTTLVNTSNKGPSNKKRGRSKKAHVLAASVEQATENFLDKGDKIAKESQFLKEELVAAVEDVRKQGDLMKSASGEFADDPCSSVKRGNMVRAARALLSAVTRLLILADMADVYKLLVQLKVVEEGILKLRNAGTEQDLGIQYKALKPEVDKLNIMAAKRQQELKDVGHRDQMAAARGILQKNVPILYTASQACLQHFDVAAYKANRDLIYKQLQQAVTGISNAAQATASDDAAQQQGGGGELAYALNNFDKQIIVDPSTFSEQRFRPSLEERLESIISGAALMADSSCTRDDRRERIVAECNAVRQALQDLLSEYMGNAGRKERSDALNSAIDKMTKKTRDLRRQLRKAVMDHVSDSFLETNVPLLVLIEAARNGNEKEVKEYTQVFREHANKLIEVANLACSISNNEEGVKLVRMSASQLEALCPQVINAALALAAKPQSKLAQENMELFKEQWEKQVRVLTDAVDDITSIDDFLAVSENHILEDVNKCVIALQEKDVDGLDRTAGAIRGRAARVIHVVTSEMDNYEPGVYTEKVLEATKLLSNTVMPRFTEQVEAAVEALSSDPAQPMDENEFIDRSRLVYDGIRDIRKAVLMIRTPEELDDSDFETEDFDVRSKTSIQTEDDQLIAGQSARAIMAQLPQEQKAKIAEAVASFQEEKSKLDAEVSKWDDSGNDIIVLAKQMCMIMMEMTDFTRGKGPLKNTSDVISAAKKIAEAGSRMDKLGRTIADHCPDSASKQDLLAYLQRIALYCHQLNICSKVKAEVQNLGGELVVSGVDSAMSLIQAAKNLMNAVVQTVKASYVASTKYQKSQGMASLNLPAVSWKMKAPEKKPLVKREKQDETQTKIKRASQKKHVNPVQALSEFKAMESI
notes: also called HA α-catenin; not shown: 16-amino acids hemaglutinin (HA)-tag of the pCGN vector at the NH2-terminus
On to B1, for which the binding result in experiment [1] was “binds”.

B2: Mouse β-catenin (transfected cDNA) (other, UniProt Q02248 2-781, looked up)
chain: ATQADLMELDMAMEPDRKAAVSHWQQQSYLDSGIHSGATTTAPSLSGKGNPEEEDVDTSQVLYEWEQGFSQSFTQEQVADIDGQYAMTRAQRVRAAMFPETLDEGMQIPSTQFDAAHPTNVQRLAEPSQMLKHAVVNLINYQDDAELATRAIPELTKLLNDEDQVVVNKAAVMVHQLSKKEASRHAIMRSPQMVSAIVRTMQNTNDVETARCTAGTLHNLSHHREGLLAIFKSGGIPALVKMLGSPVDSVLFYAITTLHNLLLHQEGAKMAVRLAGGLQKMVALLNKTNVKFLAITTDCLQILAYGNQESKLIILASGGPQALVNIMRTYTYEKLLWTTSRVLKVLSVCSSNKPAIVEAGGMQALGLHLTDPSQRLVQNCLWTLRNLSDAATKQEGMEGLLGTLVQLLGSDDINVVTCAAGILSNLTCNNYKNKMMVCQVGGIEALVRTVLRAGDREDITEPAICALRHLTSRHQEAEMAQNAVRLHYGLPVVVKLLHPPSHWPLIKATVGLIRNLALCPANHAPLREQGAIPRLVQLLVRAHQDTQRRTSMGGTQQQFVEGVRMEEIVEGCTGALHILARDVHNRIVIRGLNTIPLFVQLLYSPIENIQRVAAGVLCELAQDKEAAEAIEAEGATAPLTELLHSRNEGVATYAAAVLFRMSEDKPQDYKKRLSVELTSSLFRTEPMAWNETADLGLDIGAQGEALGYRQDDPSYRSFHSGGYGQDALGMDPMMEHEMGGHHPGADYPVDGLPDLGHAQDLMDGLPPGDSNQLAWFDTDL
For the molecule B2, in experiment [2], the “luciferase activity (TOPFLASH reporter) in CHO cells” value is about 5 fold.
